In patent US6008019A, “Plasminogen activator from saliva of the vampire bat” (Schering Aktiengesellschaft, priority 1989, dated 1999):

Experiments:
[1] = substrate: N=C(N)NCCC[C@H](NC(=O)CNC(=O)[C@@H]1CCC(=O)N1)C(=O)Nc1ccc([N+](=O)[O-])cc1; assay: Km determination of amidolytic chromogenic substrates with t-PA; assay type: biochemical; conditions: other: t-PA, 3 units per hole, 100 mM Tris pH 8.0/100 mM NaCl/0.01% Tween 80, 37° C., Lineweaver-Burk plot
Procedure: (§1) In a 96-hole plate, respectively 90 μl of 100 mM Tris pH 8.0/100 mM NaCl/0.01% "Tween" 80 and 50 μl of the corresponding chromogenic substrate (all from Kabi Vitrum, Stockholm, Sweden) in the final concentrations of 0.03/0.06/0.1/0.3/0.6 and 1 mM are incubated with 10 μl (3 units per hole) of the corresponding plasminogen activator at 37° C., and the thus-released p-nitroaniline is determined photometrically at 405 nm at various points in time between 0-7 hours. The resultant data are evaluated with the aid of a Lineweaver-Burk plot, and the Km value is determined (Segel, I. H., Enzyme Kinetics, John Wiley and Sons, New York). The following chromogenic substrates were utilized:

[2] = substrate: CC[C@@H](C)[C@@H](N)C(=O)N1CCC[C@H]1C(=O)N[C@@H](CCCNC(=N)N)C(=O)Nc1ccc([N+](=O)[O-])cc1; assay: Km determination of amidolytic chromogenic substrates with v-PA α1; assay type: biochemical, Desmodus rotundus; conditions: other: v-PA α1, 3 units per hole, 100 mM Tris pH 8.0/100 mM NaCl/0.01% Tween 80, 37° C., Lineweaver-Burk plot
Procedure: as §1

[3] = substrate: N=C(N)NCCC[C@H](NC(=O)CNC(=O)[C@@H]1CCC(=O)N1)C(=O)Nc1ccc([N+](=O)[O-])cc1; assay: as above; assay type: biochemical, Desmodus rotundus; conditions: other: v-PA α1, 3 units per hole, 100 mM Tris pH 8.0/100 mM NaCl/0.01% Tween 80, 37° C., Lineweaver-Burk plot
Procedure: as §1

[4] = substrate: CC[C@@H](C)[C@@H](N)C(=O)N1CCC[C@H]1C(=O)N[C@@H](CCCNC(=N)N)C(=O)Nc1ccc([N+](=O)[O-])cc1; assay: Km determination of amidolytic chromogenic substrates with v-PA β; assay type: biochemical, Desmodus rotundus; conditions: other: v-PA β, 3 units per hole, 100 mM Tris pH 8.0/100 mM NaCl/0.01% Tween 80, 37° C., Lineweaver-Burk plot
Procedure: as §1

[5] = substrate: N=C(N)NCCC[C@H](NC(=O)CNC(=O)[C@@H]1CCC(=O)N1)C(=O)Nc1ccc([N+](=O)[O-])cc1; assay: as above; assay type: biochemical, Desmodus rotundus; conditions: other: v-PA β, 3 units per hole, 100 mM Tris pH 8.0/100 mM NaCl/0.01% Tween 80, 37° C., Lineweaver-Burk plot
Procedure: as §1

B1: t-PA (tissue-type plasminogen activator) (Homo sapiens) (protein)
chain: SYQVICRDEKTQMIYQQHQSWLRPVLRSNRVEYCWCNSGRAQCHSVPVKSCSEPRCFNGGTCQQALYFSDFVCQCPEGFAGKCCEIDTRATCYEDQGISYRGTWSTAESGAECTNWNSSALAQKPYSGRRPDAIRLGLGNHNYCRNPDRDSKPWCYVFKAGKYSSEFCSTPACSEGNSDCYFGNGSAYRGTHSLTESGASCLPWNSMILIGKVYTAQNPSAQALGLGKHNYCRNPDGDAKPWCHVLKNRRLTWEYCDVPSCSTCGLRQYSQPQFRIKGGLFADIASHPWQAAIFAKHRRSPGERFLCGGILISSCWILSAAHCFQERFPPHHLTVILGRTYRVVPGEEEQKFEVEKYIVHKEFDDDTYDNDIALLQLKSDSSRCAQESSVVRTVCLPPADLQLPDWTECELSGYGKHEALSPFYSERLKEAHVRLYPSSRCTSQHLLNRTVTDNMLCAGDTRSGGPQANLHDACQGDSGGPLVCLNDGRMTLVGIISWGLGCGQKDVPGVYTKVTNYLDWIRDNMRP
- Km [1]: 2000 µM

B2: Desmodus rotundus saliva plasminogen activator v-PA α1 (Desmodus rotundus) (protein)
chain: AYGVACKDEITQMTYRRQESWLRPEVRSKRVEHCQCDRGQARCHTVPVNSCSEPRCFNGGTCWQAVYFSDFVCQCPAGYTGKRCEVDTRATCYEGQGVTYRGTWSTAESRVECINWNSSLLTRRTYNGRMPDAFNLGLGNHNYCRNPNGAPKPWCYVIKAGKFTSESCSVPVCSKATCGLRKYKEPQLHSTGGLFTDITSHPWQAAIFAQNRRSSGERFLCGGILISSCWVLTAAHCFQESYLPDQLKVVLGRTYRVKPGEEEQTFKVKKYIVHKEFDDDTYNNDIALLQLKSDSPQCAQESDSVRAICLPEANLQLPDWTECELSGYGKHKSSSPFYSEQLKEGHVRLYPSSRCAPKFLFNKTVTNNMLCAGDTRSGEIYPNVHDACQGDSGGPLVCMNDNHMTLLGIISWGVGCGEKDVPGVYTKVTNYLGWIRDNMHL
notes: from tissue
- Km [2]: 1000 µM
- Km [3]: 2000 µM

B3: Desmodus rotundus saliva plasminogen activator v-PA β (Desmodus rotundus) (protein)
chain: AYGGCSELRCFNGGTCWQAASFSDFVCQCPKGYTGKQCEVDTHATCYKDQGVTYRGTWSTSESGAQCINWNSNLLTRRTYNGRRSDAITLGLGNHNYCRNPDNNSKPWCYVIKASKFILEFCSVPVCSKATCGLRKYKEPQLHSTGGLFTDITSHPWQAAIFAQNRRSSGERFLCGGILISSCWVLTAAHCFQERYPPQHLRVVLGRTYRVKPGKEEQTFEVEKCIIHEEFDDDTYNNDIALLQLKSGSPQCAQESDSVRAICLPEANLQLPDWTECELSGYGKHKSSSPFYSEQLKEGHVRLYPSSRCTSKFLFNKTVTNNMLCAGDTRSGEIYPNVHDACQGDSGGPLVCMNDNHMTLLGIISWGVGCGEKDIPGVYTKVTNYLGWIRDNMRP
notes: from tissue
- Km [4]: 2000 µM
- Km [5]: 2000 µM
